Measurements as given in paper PMC3290997 (Biochemistry, 2012).
Like-named read-outs stand apart in the source and are kept apart here. Each block holds one binder with its values, some of them ahead of it. No end group written: not given here. *: point of attachment. Biotin = O=C1N[C@H]2[C@H](CS[C@H]2CCCCC(=O)*)N1; MBP = 4-maleimido-benzophenone

Key:
[1] = target: T1, SecA (E. coli, UniProt P10408 1-901); assay: cross-linking
[2] = target: T1, SecA; assay: cross-linking; remark: listed apart in the source

T1 sequence (P10408 whole entry): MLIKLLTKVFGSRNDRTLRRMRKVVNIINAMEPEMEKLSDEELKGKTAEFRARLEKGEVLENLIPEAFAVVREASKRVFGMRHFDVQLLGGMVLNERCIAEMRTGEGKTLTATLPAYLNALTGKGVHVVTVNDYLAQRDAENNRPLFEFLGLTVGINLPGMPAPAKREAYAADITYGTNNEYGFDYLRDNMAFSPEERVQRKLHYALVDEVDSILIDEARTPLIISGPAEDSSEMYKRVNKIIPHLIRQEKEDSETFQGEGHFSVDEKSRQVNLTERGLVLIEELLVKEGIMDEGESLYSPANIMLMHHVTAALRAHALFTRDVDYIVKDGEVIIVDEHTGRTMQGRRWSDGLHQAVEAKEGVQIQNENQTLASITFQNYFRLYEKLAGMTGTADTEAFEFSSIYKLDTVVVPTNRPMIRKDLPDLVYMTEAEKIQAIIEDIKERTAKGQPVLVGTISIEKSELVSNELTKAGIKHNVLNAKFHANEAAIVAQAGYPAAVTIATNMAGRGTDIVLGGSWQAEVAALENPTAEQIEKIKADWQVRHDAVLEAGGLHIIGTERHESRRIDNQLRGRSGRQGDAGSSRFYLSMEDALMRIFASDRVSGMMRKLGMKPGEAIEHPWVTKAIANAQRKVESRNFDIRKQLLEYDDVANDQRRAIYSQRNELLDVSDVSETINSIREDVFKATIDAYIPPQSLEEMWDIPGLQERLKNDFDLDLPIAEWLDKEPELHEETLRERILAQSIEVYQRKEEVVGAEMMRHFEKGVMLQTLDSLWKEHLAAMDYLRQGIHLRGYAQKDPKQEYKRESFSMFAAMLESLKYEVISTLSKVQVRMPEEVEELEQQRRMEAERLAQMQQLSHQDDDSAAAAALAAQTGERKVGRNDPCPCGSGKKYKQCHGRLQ

- binding result [1]: binds
B1: Bio-KRRLamB19C-MBP (peptide)
peptide: Biotin-MMITLRKRRKLPLAVAVAAGVC(MBP)SAQAMA

- binding result [2]: binds
B2: Biotinylated-KRRLamB19C signal peptide (peptide)
peptide: Biotin-MMITLRKRRKLPLAVAVAAGVCSAQAMA
